Test results published in publication PMC8959893, “T-Cell Responses to Immunodominant Listeria Epitopes Limit Vaccine-Directed Responses to the Colorectal Cancer Antigen, Guanylyl Cyclase C” (Frontiers in Immunology, 2022).

Molecular target: T1, peptide-H-2K^d complex (Mus musculus, UniProt P01902)
T1 construct: expressed in transfected cells; host or cells: RMA-S (TAP-deficient), stably expressing H-2K^d; provided by Dr. Sean Murphy (University of Washington)
T1 sequence (P01902 22-368): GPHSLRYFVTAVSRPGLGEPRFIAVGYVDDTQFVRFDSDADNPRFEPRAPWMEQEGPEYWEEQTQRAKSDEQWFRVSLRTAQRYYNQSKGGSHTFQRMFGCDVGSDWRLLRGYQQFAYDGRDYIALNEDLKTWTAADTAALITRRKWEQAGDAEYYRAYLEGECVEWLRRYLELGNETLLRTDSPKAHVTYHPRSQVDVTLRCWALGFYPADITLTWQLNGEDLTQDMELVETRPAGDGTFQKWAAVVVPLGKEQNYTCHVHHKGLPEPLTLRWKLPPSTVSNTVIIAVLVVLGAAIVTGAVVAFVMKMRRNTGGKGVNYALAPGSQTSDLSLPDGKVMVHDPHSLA
T1 sequence (P01887 21-119 partner): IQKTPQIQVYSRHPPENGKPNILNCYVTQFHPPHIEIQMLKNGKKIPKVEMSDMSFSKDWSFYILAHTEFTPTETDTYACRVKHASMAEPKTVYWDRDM
Assay type: cell-based
Details: for half-life (t1/2) of peptide-H-2K^d complex: Figure 4D, flow cytometry MFI, nonlinear regression of two experiments
Protocol: As previously described ([27]), RMA-S-H-2K^d cells were incubated overnight at 26°C with 30 ug/mL of each peptide. In the morning, cells were incubated 2 h at 37°C, washed 3x with PBS to remove unbound peptide, and incubated an additional 2, 4, or 6 h at 37°C. Cells were then stained with anti-H-2K^d-PE antibody (Invitrogen, Clone SF1-1.1.1), and surface H-2K^d was quantified as mean fluorescence intensity (MFI) by flow cytometry. The percent change in surface peptide-H-2K^d complexes was calculated using the formula, MFI^peptide−MFI^no peptide/MFI^0 hrs−MFI^no peptide×100 ([28]). The t1/2 for the peptide-MHC complex was calculated by nonlinear regression.

[1] = RMA-S-H-2K^d cells, 30 ug/mL peptide overnight at 26°C, 2 h at 37°C, washed, additional 2, 4 or 6 h at 37°C

| Substance | half-life (t1/2) of peptide-H-2K^d complex [1] [h] | Dissociation from MHC, fold faster than Lm-derived peptide-H-2K^d complexes (Figure 3, stated in Discussion) [fold] | t1/2 of peptide-H-2K^d complex (Figure 3C, RMA-S-H-2K^d cells, 30 ug/mL peptide overnight at 26°C, 2 h at 37°C, washed, additional 2, 4 or 6 h at 37°C, anti-H-2K^d-PE MFI by flow cytometry, nonlinear regression, representative of two experiments) [h] |
| --- | --- | --- | --- |
| GUCY2CF255Y: GUCY2C254-262 peptide variant with F255Y point mutation at an H-2K^d anchoring residue (SYYDVKGDL; UniProt Q3UWA6 254-262, looked up, variant F255Y) | 8.3 |  |  |
| GUCY2CL262I: GUCY2C254-262 peptide variant with L262I point mutation at an H-2K^d anchoring residue (SFYDVKGDI; UniProt Q3UWA6 254-262, looked up, variant L262I) | 1.0 |  |  |
| GUCY2C254-262: dominant H-2K^d-restricted CD8+ T-cell epitope of mouse guanylyl cyclase C, residues 254-262 (SFYDVKGDL; UniProt Q3UWA6 254-262, looked up, fragment) | 2.1 | > 5 | 1.8 |
